B1: AAV.CPP.16 (other)
chain: MAADGYLPDWLEDNLSEGIREWWALKPGAPQPKANQQHQDNARGLVLPGYKYLGPGNGLDKGEPVNAADAAALEHDKAYDQQLKAGDNPYLKYNHADAEFQERLKEDTSFGGNLGRAVFQAKKRLLEPLGLVEEAAKTAPGKKRPVEQSPQEPDSSAGIGKSGAQPAKKRLNFGQTGDTESVPDPQPIGEPPAAPSGVGSLTMASGGGAPVADNNEGADGVGSSSGNWHCDSQWLGDRVITTSTRTWALPTYNNHLYKQISNSTSGGSSNDNAYFGYSTPWGYFDFNRFHCHFSPRDWQRLINNNWGFRPKRLNFKLFNIQVKEVTDNNGVKTIANNLTSTVQVFTDSDYQLPYVLGSAHEGCLPPFPADVFMIPQYGYLTLNDGSQAVGRSSFYCLEYFPSQMLRTGNNFQFSYEFENVPFHSSYAHSQSLDRLMNPLIDQYLYYLSKTINGSGQNQQTLKFSVAGPSNMAVQGRNYIPGPSYRQQRVSTTVTQNNNSEFAWPGASSWALNGRNSLMNPGPAMASHKEGEDRFFPLSGSLIFGKQGTGRDNVDADKVMITNEEEIKTTNPVATESYGQVATNHQSAQTVSALKAQAQTGWVQNQGILPGMVWQDRDVYLQGPIWAKIPHTDGNFHPSPLMGGFGMKHPPPQILIKNTPVPADPPTAFNKDKLNSFITQYSTGQVSVEIEWELQKENSKRWNPEIQYTSNYYKSNNVEFAVNTEGVYSEPRPIGTRYLTRNL
notes: Whole recombinant AAV particle in the assay; also called Bip2.1 insert TVSALK
B2: AAV.CPP.21 (other)
chain: MAADGYLPDWLEDNLSEGIREWWALKPGAPQPKANQQHQDNARGLVLPGYKYLGPGNGLDKGEPVNAADAAALEHDKAYDQQLKAGDNPYLKYNHADAEFQERLKEDTSFGGNLGRAVFQAKKRLLEPLGLVEEAAKTAPGKKRPVEQSPQEPDSSAGIGKSGAQPAKKRLNFGQTGDTESVPDPQPIGEPPAAPSGVGSLTMASGGGAPVADNNEGADGVGSSSGNWHCDSQWLGDRVITTSTRTWALPTYNNHLYKQISNSTSGGSSNDNAYFGYSTPWGYFDFNRFHCHFSPRDWQRLINNNWGFRPKRLNFKLFNIQVKEVTDNNGVKTIANNLTSTVQVFTDSDYQLPYVLGSAHEGCLPPFPADVFMIPQYGYLTLNDGSQAVGRSSFYCLEYFPSQMLRTGNNFQFSYEFENVPFHSSYAHSQSLDRLMNPLIDQYLYYLSKTINGSGQNQQTLKFSVAGPSNMAVQGRNYIPGPSYRQQRVSTTVTQNNNSEFAWPGASSWALNGRNSLMNPGPAMASHKEGEDRFFPLSGSLIFGKQGTGRDNVDADKVMITNEEEIKTTNPVATESYGQVATNHQSAQTVSALFKAQAQTGWVQNQGILPGMVWQDRDVYLQGPIWAKIPHTDGNFHPSPLMGGFGMKHPPPQILIKNTPVPADPPTAFNKDKLNSFITQYSTGQVSVEIEWELQKENSKRWNPEIQYTSNYYKSNNVEFAVNTEGVYSEPRPIGTRYLTRNL
notes: Whole recombinant AAV particle in the assay; also called Bip2.6 insert TVSALFK

Biological target: T1, mouse LY6A (mouse, UniProt P05533 27-112)
T1 construct: whole, on cells
T1 sequence: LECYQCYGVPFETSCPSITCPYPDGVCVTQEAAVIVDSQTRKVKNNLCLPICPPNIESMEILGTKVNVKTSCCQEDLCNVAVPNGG
Experiment: AAV binding to LY6A-transfected HEK293T cells on ice, bound viral genomes counted by qPCR

Binder | binding result
B1 | no binding (tested: MOI of 10000)
B2 | no binding (tested: MOI of 10000)
